This note sets out measurements from patent publication US20210371878A1.

Test [1] addresses C-intein of Npu DnaE fused to 3' ABCA4 (set 1, from Cys1150), 3xflag (product of pzac-CMV260-3' ABCA4 intein) (Nostoc punctiforme; human) (UniProt P78363). Description: cell-based or functional assay.
Test [2] addresses C-intein of DnaE from Nostoc punctiforme fused to the C-terminal half of EGFP, 3xflag (product of pAAV2.1-CMV-3' EGFP intein) (Nostoc punctiforme). Description: cell-based or functional assay.

In turn, “5' ABCA4 (set 1, split at Cys1150) fused to the N-intein of Npu DnaE, 3xflag (product of pzac-CMV260-5' ABCA4 intein) (from UniProt P78363 1-1150)” registered a Full-length ABCA4 by Western blot band intensity, relative to the single AAV plasmid (HEK293, set 1) in test [1] of 61%.

Turning to “N-terminal half of EGFP fused to the N-intein of DnaE from Nostoc punctiforme, 3xflag (product of pAAV2.1-CMV-5' EGFP intein)”, the EGFP protein amount by Western blot band intensity, relative to a single AAV plasmid in test [2] was found to be 76%.
